Here are results for eight molecules from patent publication US20260028400A1 (AIMED BIO, published 2026).

The target of the test is T1, Ig-like (human, UniProt Q01973).
T1 construct: Ig-like domain, His tag; also called Ig-like domain; human ROR1-immunoglobulin domain
As to the kind of experiment: scFv ELISA on coated domain, anti-HA-HRP, OD450. As to the method: Thereafter, the plate was treated with each scFv and reacted for 2 hours, followed by washing four times using PBST and distilled water. After binding at room temperature for 1 hour using an HRP-conjugated anti-HA antibody (Roche, 12013819001, Anti-HA-Peroxidase, High Affinity) capable of binding to the HA tag, washing was performed six times using PBST and distilled water. After color development by adding TMB substrate solution (Thermo Scientific, 34029, 1-Step™ Ultra TMB-ELISA Substrate Solution), the color reaction was stopped with stop solution (Invitrogen, SS04, ELISA Stop Solution), and the absorbance was measured at OD 450 nm. The scFv binding to each domain was analyzed through ELISA.
On the technique in general: In an ELISA, binding on a coated surface is turned into a signal by an enzyme label.

T1 sequence (Q01973 39-151 limits assumed): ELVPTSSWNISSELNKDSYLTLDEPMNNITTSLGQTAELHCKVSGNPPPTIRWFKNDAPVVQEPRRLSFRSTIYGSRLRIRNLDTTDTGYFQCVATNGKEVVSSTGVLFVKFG

B1: P015010 scFv (scFv, V domains shown)
VH: EVQLLESGGGLVQPGGSLRLSCAASGFTFSNYAMSWVRQAPGKGLEWVSGISPNGSSIYYADSVKGRFTISRDNSKNTLYLQMNSLRAEDTAVYYCAKAARLSPSRNYSYAYGMDVWGQGTLVTVSS
VL: QSVLTQPPSASGTPGQRVTISCTGSSSNIGNNNVTWYQQLPGTAPKLLIYSDSQRPSGVPDRFSGSKSGTSASLAISGLRSEDEADYYCGTWDYSLNGYVFGGGTKLTVL
notes: HA-tagged scFv
With B1, the binding result was “binds”.

B2: P015002 scFv (scFv, V domains shown)
VH: EVQLLESGGGLVQPGGSLRLSCAASGFTFSDYSMSWVRQAPGKGLEWVSGISHNGGSTYYADSVKGRFTISRDNSKNTLYLQMSSLRAEDTAVYYCARDVSRWSKTRWSYDNAMDVWGQGTLVTVSS
VL: QSVLTQPPSASGTPGQRVTISCTGSSSNIGSNYVSWYRQLPGTAPKLLIYSDSNRPSGVPDRFSGSKSGTSASLAISGLRSEDEADYYCATWDASLSAYVFGGGTKLTVL
notes: HA-tagged scFv
Regarding B2, the binding result is on record as “no binding”.

B3: P015012 scFv (scFv, V domains shown)
VH: EVQLLESGGGLVQPGGSLRLSCAASGFTFSGYSMSWVRQAPGKGLEWVSGISYGGSSISYADSVKGRFTISRDNSKNTLYLQMNSLRAEDTAVYYCAKPVRRWARFRLSYDDAMDVWGQGTLVTVSS
VL: QSVLTQPPSASGTPGQRVTISCSGSSSNIGNNAVNWYQQLPGTAPKLLIYANSHRPSGVPDRFSGSKSGTSASLAISGLRSEDEADYYCGTWDSSLSGYVFGGGTKLTVL
notes: HA-tagged scFv
For the molecule B3, the binding result is recorded as “no binding”.

B4: P015043 scFv (scFv, V domains shown)
VH: EVQLLESGGGLVQPGGSLRLSCAASGFTFSNYDMSWVRQAPGKGLEWVSWISPGGSSIYYADSVKGRFTISRDNSKNTLYLQMNSLRAEDTAVYYCAKTLTRFDYWGQGTLVTVSS
VL: QSVLTQPPSASGTPGQRVTISCTGSSSNIGNNNVSWYQQLPGTAPKLLIYYDSHRPSGVPDRFSGSKSGTSASLAISGLRSEDEADYYCGTWDSSLSGYVFGGGTKLTVL
notes: HA-tagged scFv
With B4, the binding result is “no binding”.

B5: P015041 scFv (scFv, V domains shown)
VH: EVQLLESGGGLVQPGGSLRLSCAASGFTFSNYAMSWVRQAPGKGLEWVSGISPNGSSIYYADSVKGRFTISRDNSKNTLYLQMNSLRAEDTAVYYCAKAARLSPSRNYSYAYGMDVWGQGTLVTVSS
VL: QSVLTQPPSASGTPGQRVTISCTGSSSNIGNNNVTWYQQLPGTAPKLLIYSDSQRPSGVPDRFSGSKSGTSASLAISGLRSEDEADYYCGTWEYSLNGYVFGGGTKLTVL
notes: HA-tagged scFv
Consider B5, for which the binding result was “binds”.

B6: P015040 scFv (scFv, V domains shown)
VH: EVQLLESGGGLVQPGGSLRLSCAASGFTFSNYAMSWVRQAPGKGLEWVSGISPNGSSIYYADSVKGRFTISRDNSKNTLYLQMNSLRAEDTAVYYCAKAARLSPSRNYSYAYGMDVWGQGTLVTVSS
VL: QSVLTQPPSASGTPGQRVTISCTGSSSNIGNNNVTWYQQLPGTAPKLLIYSDSQRPSGVPDRFSGSKSGTSASLAISGLRSKDEADYYCGTWDYSLNGYVFGGGTKLTVL
notes: HA-tagged scFv
For B6, the binding result is “binds”.

B7: P015038 scFv (scFv, V domains shown)
VH: EVQLQESGGGLVLPGGSLRLSCAASGFTFNNYAMSWVRQAPGKGLEWVSGISPNGSSIYYADSVKGRFTISRDNSKNTLYLQMNSLRAEDTAVYYCAKAARLSPSRNYSYAYGMDVWGQGTLVTVSS
VL: QSVLTQPPSASGTPGQRVTISCTGSSSNIGNNNVTWYQQLPGTAPKLLIYSDSQRPSGVPDRFSGSKSGTSASLAISGLRSEDEADYYCGTWDYSLNGYVFGGGTKLTVL
notes: HA-tagged scFv
On to B7, for which the binding result is reported as “binds”.

B8: P015005 scFv (scFv, V domains shown)
VH: EVQLLESGGGLVQPGGSLRLSCAASGFTFSDYSMSWVRQAPGKGLEWVSGISHNGGSTYYADSVKGRFTISRDNSKNTLYLQMSSLRAEDTAVYYCARDVSRWSKTRWSYDNAMDVWGQGTLVTVSS
VL: QSVLTQPPSASGTPGQRVTISCSGSSSNIGSNYVNWYQQLPGTAPKLLIYSDSHRPSGVPDRFSGSKSGTSASLAISGLRSEDEADYYCGSWDSSLNAYVLGGGTKLTVL
notes: HA-tagged scFv
Turning to B8, the binding result is “no binding”.
